Earlier results as cited in PMC4245983 (Biochemistry, 2014).
Entries after “also recorded” stand apart in the source; their conditions may differ. Values belong to the molecule of their own block, whether it stands above or below them.

Columns and labels:
Hsc70 NBD = conditions: NBD with interdomain linker; ref 32 (b59 prints ref 23)
WT HscA = conditions: read-out: Kd^ATP of WT HscA
HscA [1] = conditions: read-out: Km of WT HscA (ATP)
HscA [2] = conditions: 25 °C; background statement, no reference given
HscA [3] = conditions: compared to DnaK
[4] = test system: [2Fe-2S] cluster transfer

B1: auxilin: J-protein of Hsc70 (protein, UniProt Q27974 1-910, looked up)
Auxilin: MDSSGASSPDMEPSYGGGLFDMVKGGAGRLFSNLKDNLKDTLKDTSSRVIQSVTSYTKGDLDFTYVTSRIIVMSFPLDSVDIGFRNQVDDIRSFLDSRHLDHYTVYNLSPKSYRTAKFHSRVSECSWPIRQAPSLHNLFAVCRNMYNWLLQNPKNVCVVHCLDGRAASSILVGAMFIFCNLYSTPGPAVRLLYAKRPGIGLSPSHRRYLGYMCDLLADKPYRPHFKPLTIKSITVSPVPFFNKQRNGCRPYCDVLIGETKIYTTCADFERMKEYRVQDGKIFIPLSITVQGDVVVSMYHLRSTIGSRLQAKVTNTQIFQLQFHTGFIPLDTTVLKFTKPELDACDVPEKYPQLFQVTLDVELQPHDKVMELTPPWEHYCTKDVNPSILFSSHQEHQDTLVLGGQAPIDIPPDNPRHFGQGGFFSTLCWQDQKSEKSFCEEDHAALVNQESEQSDDELLTLSSPHGNANGDKPHAARKPSKKQQEPAAPAPPEDVDLLGLEGSAVSKNFSSPAAPPSNSELLSDLFGGGGAAGPVQSGQSGVDDVFHPSGPTSTQSTPRRSATSTSASPTLRVGEGATFDPFGAPSKPSGQDLLGSFLNTASASSDPFLQPTRSPSPTVHASSTPAVNIQPDVSGAWDWHTKPGGFGMGSKSAATSPTGSSHGTPTHQNKPQTLDPFADLGTLGGSSFASKPSTPTGLGGGFPPLSSPQKASPQPMGGGWQQGGGYNWQQTQSKPQSSMPHSSPQNRPNYNVSFSSMPGGQNERGKAAANLEGKQKAADFEDLLSGQGFNAHKDKKGPRTIAEMRKEEMAKEMDPEKLKILEWIEGKERNIRALLSTMHTVLWAGETKWKPVGMADLVTPEQVKKVYRKAVLVVHPDKATGQPYEQYAKMIFMELNDAWSEFENQGQKPLY
effect on ATPase activity of Hsc70 NBD variants (Hsc70 NBD): stimulated by its J-protein (auxilin) if and only if the interdomain linker was present; also recorded: could be stimulated by its J-protein, auxilin

Kd (WT HscA): 26 ± 7 µM | binding affinity for ATP, fold weaker than DnaK (HscA [3]): 10^3 fold | preferential binding to conformational state of IscU (IscU): binds preferentially to the D-state
B2: WT HscA: specialized Hsp70-type chaperone (66 kDa) of E. coli (protein, UniProt P0A6Z1 1-616, looked up)
chain: MALLQISEPGLSAAPHQRRLAAGIDLGTTNSLVATVRSGQAETLADHEGRHLLPSVVHYQQQGHSVGYDARTNAALDTANTISSVKRLMGRSLADIQQRYPHLPYQFQASENGLPMIETAAGLLNPVRVSADILKALAARATEALAGELDGVVITVPAYFDDAQRQGTKDAARLAGLHVLRLLNEPTAAAIAYGLDSGQEGVIAVYDLGGGTFDISILRLSRGVFEVLATGGDSALGGDDFDHLLADYIREQAGIPDRSDNRVQRELLDAAIAAKIALSDADSVTVNVAGWQGEISREQFNELIAPLVKRTLLACRRALKDAGVEADEVLEVVMVGGSTRVPLVRERVGEFFGRPPLTSIDPDKVVAIGAAIQADILVGNKPDSEMLLLDVIPLSLGLETMGGLVEKVIPRNTTIPVARAQDFTTFKDGQTAMSIHVMQGERELVQDCRSLARFALRGIPALPAGGAHIRVTFQVDADGLLSVTAMEKSTGVEASIQVKPSYGLTDSEIASMIKDSMSYAEQDVKARMLAEQKVEAARVLESLHGALAADAALLSAAERQVIDDAAAHLSEVAQGDDVDAIEQAIKNVDKQTQDFAARRMDQSVRRALKGHSVDEV
modifications: full-length
Km (HscA [1]): 12.6 µM | intrinsic ATPase activity (HscA [2]): 0.02 min^–1 | rate of ADP dissociation, fold higher than DnaK (HscA [3]): > 10^3 fold

effect of ATPase deficient mutant on [2Fe-2S] cluster transfer [4]: abolishes [2Fe-2S] cluster transfer
B3: HscA T212V (protein, UniProt P0A6Z1 1-616, looked up, variant T212V)
Chaperone protein HscA: MALLQISEPGLSAAPHQRRLAAGIDLGTTNSLVATVRSGQAETLADHEGRHLLPSVVHYQQQGHSVGYDARTNAALDTANTISSVKRLMGRSLADIQQRYPHLPYQFQASENGLPMIETAAGLLNPVRVSADILKALAARATEALAGELDGVVITVPAYFDDAQRQGTKDAARLAGLHVLRLLNEPTAAAIAYGLDSGQEGVIAVYDLGGGVFDISILRLSRGVFEVLATGGDSALGGDDFDHLLADYIREQAGIPDRSDNRVQRELLDAAIAAKIALSDADSVTVNVAGWQGEISREQFNELIAPLVKRTLLACRRALKDAGVEADEVLEVVMVGGSTRVPLVRERVGEFFGRPPLTSIDPDKVVAIGAAIQADILVGNKPDSEMLLLDVIPLSLGLETMGGLVEKVIPRNTTIPVARAQDFTTFKDGQTAMSIHVMQGERELVQDCRSLARFALRGIPALPAGGAHIRVTFQVDADGLLSVTAMEKSTGVEASIQVKPSYGLTDSEIASMIKDSMSYAEQDVKARMLAEQKVEAARVLESLHGALAADAALLSAAERQVIDDAAAHLSEVAQGDDVDAIEQAIKNVDKQTQDFAARRMDQSVRRALKGHSVDEV
